The record followed here is a protein production outcome set (Wang et al. 2014).
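Also: failed if final PepcDB status was selected cloned or expressed and not failed if soluble or beyond.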

This series in a line: label from the status in PepcDB records.
On to “MLRFMVRSFASLAISSAYSIPIGLSSVTSILDEDTIIERVCYGYLKCNATCSTEIVIVNYSITLNMSDDVVVKLLNDGYFSLDAGAYFGVVPKAIWSRKFQEIDNTVRLATNVLYITESDGTSILVDSGIGNKFDDKFRKIYRVEKQSDIYEYIRLHGDPNSVRMIINSHLHFDHVGHNADFKNAYAYAQADEFKAARYRNYITKANYRLSASQIKNKVEIGGSKRINGFIRVIKTDGHTPGHQVILINAGGRKIMYFGDIVPSTFHLKLPYRTAIDLDPLKTIEFKKNLVKMAIRENYICIFNHDVETPAAILSGDYSDPKYVKVDI”, for which the protein production entry was “failed”.

In the case of “MMMLQGSKSGSEMEVTWEDQQNINIFSRLNNRVHDLDDDIKSAKEKCENLEDAGNELILADEEMVRFQIGEVFAHVPRDDVETKIEEMKEATCKSLEKLEQEKESIVTQMAALKKVLYAKFKDSINLEED”, the protein production result is listed as “failed”.

Regarding “FEERSGVVPCGTPWGQWYQTLEEVFIEVQVPPGTRAQDIQCGLQSRHVALAVGGREILKGKLFDSTIADEGTWTLEDRKMVRIVLTKTKRDAANCWTSLLESEYAADPWVQDQMQRKLTLERFQKENPGFDFSGAEISGNYTKGGPDFSNLEKDGT”, the protein production entry is “not failed”.

Take “MDYNKTAKDILKLLGGEKNVMSAAHCATRLRLVLKNEKEARTKEIEKLDGVKGVFSSSGQYQIIIGQGSVNKVYKAFVEGTGISESSLSDTKKAAMKNM”: the protein production result was “not failed”.

With “MGMLGLDLLKEVPGLLEEIKALPLRLDEERFRFWLQQDYPFVEALYRYQVGLLLEAPQAHRAPLVQALMATVEELDWLLLQGASPSAPVHPVRAGYIALLEEMGRLPYAYRVVFFYFLNGLFLEAWAHHVPEEGPWAELSQHWFAPEFQAVLYDLEVLARGLWEDLDPEVVRTYLRRILEAEKATWSLLL”, the protein production result was “not failed”.

As for “MCCPPMTSSSSLSHHASQSGQVRLCPGCELPIDAITVDQAHSAHCPRCGTLLYRGGSPSLSGDLALAVTCLLLFIPSHFFSYIDIRLFGVMIPATLPQGVFALWDEGYIALALLVLFCSSIAPLVLCLSVVSAHLALRFRYFQTLRYSLLFIHHLKVWVMIDVFLVSVAVSCFKLKDYSDIFIGPGLLGLVLLQLFTVLLLSRISTRRYWETWQAETEYDLPVKQVHCHNCHLSQPENGHCVRCQHKLYHRKPNSIERTWAYVLAATVAIFPANLIPISILITNGQRLEDTIFSGVASLVKNGMWGIALIIFVASIVVPVIKIIGLAYLLMAIKLKRHVHQRQRMMIYRGIKWIGKWSVMDLFVISIMLTLVDRGQILDFTPGYGAVAFGMVVVLTMLAAESLDPRLLWDEPDSTRTQQ”, the protein production result is “failed”.

As for “MLNIQNYSASPHPGIVAERPQTPSASEHAEIAVVPSTTEHRGTDIISLSQAATKIQQAQQTLQSTPPISEENNDERTLARQQLTSSLNALAKSGVSLSAEQNENLRSTFSAPTSALFSASPMAQPRTTISDAEIWDMVSQNISAIGDSYLGVYENVVAVYTDFYQAFSDILSKMGGWLSPGKDGNTIKLNVDSLKSEISSLINKYTQINKNTILFPSQTGSGMTTATKAEAEQWIKELNLPDSCLKASGSGYVVLVDTGPLSKMVSDLNGIGSGSALELDNAKYQAWQSGFKAQEENLKTTLQTLTQKYSNANSLYDNLVKVLSSTISSSLETAKSFLQG”, the protein production result is recorded as “failed”.

With “MSLDLSLNNLYSISTVELIQAFANTPASVTSLNLSGNSLGFKNSDELVQILAAIPANVTSLNLSGNFLSYKSSDELVKTLAAIPFTITVLDLGWNDFSSKSSSEFKQAFSNLPASITSLNLRGNDLGIKSSDELIQILAAIPANVNSLNLRGNNLASKNCAELAKFLASIPASVTSLDLSANLLGLKLEHHHHHH”, the protein production result is listed as “failed”.

In the case of “MASLAFIQAFLESFKGFLSQATLISVLIASVLILFCAILLLLALLLRNRLASYIATAAFLGAFLSMPFVLNILLTQAIYPIETRILHANPLSYSNAFSLQVGVKNHSKFTLNKCVLRLEVLKNPHNFVEEHAFKWFVKKSYEKIFKEKILPKESKVFSFFIDNYPYSKTAPYQVSLFCL”, the protein production entry is “failed”.

With “MTASFPTRVYLLRHAKAAWAAPGERDFDRGLNEAGFAEAEIIADLAADRRYRPDLILSSTAARCRQTTQAWQRAFNEGIDIVYIDEMYNARSETYLSLIAAQTEVQSVMLVGHNPTMEATLEAMIGEDLLHAALPSGFPTSGLAVLDQDDSAASGKNRWRLIDFLAPGK”, the protein production entry is reported as “not failed”.

Consider “MNFQENLAALDLEYLWHPCSQMQEHQNFPIIPIKKAQGIYLYDFNDNAYMDLISSWWVNLFGHNNAYISQQLKNQIDDLEHVLLASFSHKPIITLSQRLCQLTHMDKCFYADNGSSCVEIALKMSYHAHFLKNQTRRKKLFLSLSNSYHGETLGALSVGDVKLYKDTYTPLLLKNLTTPVPKNDHEIENSLNALKRLLDKHSEEICAFIAEPLLQCAGNMHIYSARYLKQAVLLCKQKNIHIIFDEIATGFGRTGSMFAYEQCEIKPDFLCLSKGISGGYLPLSALLTHNEIYNQFYAPYEENKAFLHSHSYTGNALACACANATLDIFEKENVIEKNKALSGFIFNTLQNALKPLMEQQVVSDLRHLGMVFAFEVFIQTKERLSLAVFKKTLKKGLLLRPLNNTIYLMPPYIITHEEVKKAVAGLVEILDELRKG”, for which the protein production entry is listed as “failed”.

For the sequence “MPLCLKINKKHGEQTRRILIENNLLNKDYKITSEGNYLYLPIKDVDEDILKSILNIEFELVDKELEEKKIIKKPSFREIISKKYRKEIDEGLISLSYDVVGDLVILQISDEVDEKIRKEIGELAYKLIPCKGVFRRKSEVKGEFRVRELEHLAGENRTLTIHKENGYRLWVDIAKVYFSPRLGGERARIMKKVSLNDVVVDMFAGVGPFSIACKNAKKIYAIDINPHAIELLKKNIKLNKLEHKIIPILSDVREVDVKGNRVIMNLPKFAHKFIDKALDIVEEGGVIHYYTIGKDFDKAIKLFEKKCDCEVLEKRIVKSYAPREYILALDFKINKK”, the protein production entry is “not failed”.

For “RFLEDMTIGERREVGTFTFTADAIKTFAAQFDPQPFHLDEEAGKNSLFGGLAASGWHVAAVCMKLMVADAQRESAEAAKRGELVATGGPSPGFRELRWLKPVLAGDTITYYKQVESLRPSDSRPQWGIMQARNTGINQRGEVVFSFLATAFVPRRPNA”, the protein production result was “failed”.

In the case of “MALTEAWLIEKANRKLNAGGMYKITSDKTRNVIKKMAKEGIYLCVAQGYRSTAEQNALYAQGRTKPGAIVTNAKGGQSNHNYGVAVDLCLYTNDGKDVIWESTTSRWKKVVAAMKAEGFKWGGDWKSFKDYPHFELCDAVSGEKIPAATQNTNTNSNRYEGKVIDSAPLLPKMDFKSSPFRMYKVGTEFLVYDHNQYWYKTYINDKLYYMYKSFCDVVAKKDAKGRIKVRIKSAKDLRIPVWNNTKLNSGKIKWYAPNTKLAWYNNGKGYLELWYPSDGWYYTANYFLK”, the protein production result is “failed”.

Turning to “MQAILLNFCFDFMCNYVIMSNKHFYRLGGFIMSFKIITISREFGSGGRFIGEQIAQKCGIEFYDKKIIEHVAKELGISEQIVANQGEYAPAGNIFSYAFVGRDITGVSLSDQIFNIQQKLIKDIAQKEPCVIVGRCADYILSDRDDVLNVFIEGNKPEKAARIKKLYQKSDDEVKKLLKDVDKKRSVNYRYFTDKEWGNRKNYDLVLNSSVLGYDKCIELITAAYA”, the protein production entry was “failed”.

For “MPRASISDTIPMTMASIDAGSVRFTARADKRHLNPLGGVHGGFAATVLDSVTGCAIHSILEAGVGYGTVDLSVKRVKAVPEDTPLVAEGRVLHVPCAIGSQRADLMLAPPRLGRDRRCPAGLEHHHHHH”, the protein production result is “failed”.

Turning to “MKKLYRYVLFTFLLIFSQLSFANWDLTDNQPIEISAQATNIEADIRALPEQHFFSNNDYAQVKRLLSTTISQQKEHATALKEALATYREDSSNQNWIAVETVHQSLTSLNLSKEQLLKLTNSTTREQLTGFGPYGVTQFYSELSITKLNIEYYLHYQIRSFKNLLKDLTISPVPIISVIFKVLCVFFIFSWWMKNSSRLINDFKTSKLENGTKPNFFIRSIWYLTRAHKAIAWLLLITVTLRIVSTLPSLQHLIFLEIFTWWILGGSIAVSFILEFIYRNSKHNKKEIIALRLSTVRHYVWGIIVAGVILQISSRTLGQGTIYAWINSLMYLFFVLLTIHTLRKWKPTVFERIERVDPLPLSIQWAKRNQKTFLISIAATACGAAWLSWRALQHSIIALLSQYAAFSHALAYLFRIEVAKQTEVAREQSNLVRVKGTAAFDYIAPGSEDSELIEDYAKDEMSALSRYLLTESPAVCVLSGERGVGTTTLLNRILNKVKNATPIYINCPYDGYSALLPELAKQLGLDEESSERDILQYLRNSDTCYLLAFDSAQRLVKPKVNGLADLMKLTNLLRRARKSHRVVLAIEKSCWRFIDRARGERLLFDLVTFMPKWDEKQIGQLLESRITLSEGQPTISFDGLVLPRQWDEENLTEEERARNGFYRILWDYSDGNPTVALRFFRLSLHRDKDTDAILVRLFRAPHSDDLETMPKPMLAVLRSIVQLEVASPADVCDCSRLSMAEVISTLRYFQSRGYIEWSDDKARISDHWFRHITNVLHRQHLLVK”, the protein production result was “failed”.

“MIAHLLLSLALLLTAAKLGGVLAVRLGQPAVLGELVAGIALGALPALGLHGAAGLAHDPVLEALAELGVILLLFEVGLSTRLAELVKVGASAFLVACIGVVAPMALGYGVGAWLLPGASPLAHLFLGAALSATSVGITARVLRDMGRIGSPAGQIILGAAVIDDVLGLLVLAVMVGLAGGGGDGAGTWTVLALVGAKAVGFLGAALVAGRWAAPRLFAVAARLRAQGVLFTLALAVCLALSWAASAVELAPIVGAFAAGLVLEGVPFAELSGGEERLEERLTPLAAVLVPLFFVRMGLAVDLGALGTGSLALAGALSVAAIVGKQACALAVVTPGVDRLAVGLGMIPRGEVGLIFANIGLSLTAGGRPLLGPGAFAAIVAMVLVTTLVTPPLLRWRMGSAPAAAAVRPGPGVRAA”: the protein production entry is recorded as “failed”.

Take “MGHHHHHHSHMDVTIQHPWFKRTLGPFYPSRLFDQFFGEGLFEYDLLPFLSSTISPYYRQSLFRTVLDSGISEVRSDRDKFVIFLDVKHFSPEDLTVKVQDDFVEIHGKHNERQDDHGYISREFHRRYRLPSNVDQSALSCSLSADGMLTFCGPKIQTGLDATHAER”: the protein production entry is “failed”.

“GSHFYFLSKRRRNLLRNPCGEEDLEGWSDVEHGGDGWKVEELPGDNGVEFTQDDSVKKYFASSFEWCRKAQVIDLQAEGYWEELLDTTQPAIVVKDWYSGRTDAGSLYELTVRLLSENEDVLAEFATGQVAVPEDGSWMEISHTFIDYGPGVRFVRFEHGGQDSVYWKGWFGARVTNSSVWVEP”: the protein production result is given as “not failed”.

Consider “MPSRQLQILIRKTLPLVPDHVLIIGESGIAFSKATNLLGQEFEHILFDGRNGIHLEALAIAAGTLKMGGTLCLVLSDWENLSQQPDQDSLRWNGNQSAIATPNFIYHFKQCIERYHFPILREESAVEFPTVFYSNEHHKNATLAQQQIIENILQAEQDIYFLTAKRGRGKSALLGMLANQIQAPVYLTAPNKSAVHSVIEFSEGDIEFIAPDELALTLQTEPEFSQSAWLLVDEAAMIPLPLLQEYSRYFQHIVFSTTIHSYEGTGRGFELKFKRKIHRTFQHFELKQPLRWQENDPLEHFIDDLLLLNAEDDFQHFDYSNITYNIEENAKNLSFPCLRGKVPEGPKGGFRYS”, for which the protein production entry is recorded as “failed”.

As to “MSLDKVLVGYWHNWKSTGKDGYKGGSSADFNLSSTQEGYNVINVSFMKTPEGQTLPTFKPYNKTDTEFRAEISKLNAEGKSVLIALGGADAHIELKKSQESDFVNEIIRLVDTYGFDGLDIDLEQAAIEAADNQTVIPSALKKVKDHYRKDGKNFMITMAPEFPYLTSSGKYAPYINNLDSYYDFINPQYYNQGGDGFWDSDLNMWISQSNDEKKEDFLYGLTQRLVTGTDGFIKIPASKFVIGLPSNNDAAATGYVKDPNAVKNALNRLKASGNEIKGLMTWSVNWDAGTNSNGEKYNNTFVNTYAPMLFNNEGHHHHHH”, the protein production result is “not failed”.
